The record followed here is patent US20130171184A1 (MACK TRUCKS, published 2013).

Where no end group is shown, it is not given here. The star is where a group is joined. Biotin = O=C1N[C@H]2[C@H](CS[C@H]2CCCCC(=O)*)N1

B4: Neisseria meningitidis Hsf (Msf) of strain H44/76, expressed on meningococci (other)
chain: NNEEQEEDLYLDPVQRTVAVLIVNSDKEGTGEKEKVEENSDWAVYFNEKGVLTAREITLKAGDNLKIKQNGTNFTYSLKKDLTDLTSVGTEKLSFSANGNKVNITSDTKGLNFAKETAGTNGDTTVHLNGIGSTLTDTLLNTGATTNVTNDNVTDDEKKRAASVKDVLNAGWNIKGVKPGTTASDNVDFVRTYDTVEFLSADTKTTTVNVESKDNGKKTEVKIGAKTSVIKEKDGKLVTGKDKGENGSSTDEGEGLVTAKEVIDAVNKAGWRMKTTTANGQTGQADKFETVTSGTNVTFASGKGTTATVSKDDQGNITVMYDVNVGDALNVNQLQNSGWNLDSKAVAGSSGKVISGNVSPSKGKMDETVNINAGNNIEITRNGKNIDIATSMTPQFSSVSLGAGADAPTLSVDGDALNVGSKKDNKPVRITNVAPGVKEGDVTNVAQLKGVAQNLNNRIDNVDGNARAGIAQAIATAGLVQAYLPGKSMMAIGGGTYRGEAGYAIGYSSISDGGNWIIKGTASGNSRGHFGASASVGYQW
notes: Opc-deficient variants or mutants isolate the Msf effect; also called NhhA; NMB0992
B6: control peptide GS-22 (peptide)
peptide: Biotin-GSNENQKTVKAESVPNMSFDQS

The target of test [1] is B4. Kind of test: ELISA, bacteria on peptide immobilised on extravidin coated plates.
The target in test [2] is B4. Description: ELISA, bacteria on immobilised biotinylated peptide.
In test [3] the target is T1, native human vitronectin preparation (nVn) (human, UniProt P04004 20-478).
T1 construct: Same protein as m4 in the native, closed conformation; also called native Vn
T1 sequence (P04004 20-478 limits assumed): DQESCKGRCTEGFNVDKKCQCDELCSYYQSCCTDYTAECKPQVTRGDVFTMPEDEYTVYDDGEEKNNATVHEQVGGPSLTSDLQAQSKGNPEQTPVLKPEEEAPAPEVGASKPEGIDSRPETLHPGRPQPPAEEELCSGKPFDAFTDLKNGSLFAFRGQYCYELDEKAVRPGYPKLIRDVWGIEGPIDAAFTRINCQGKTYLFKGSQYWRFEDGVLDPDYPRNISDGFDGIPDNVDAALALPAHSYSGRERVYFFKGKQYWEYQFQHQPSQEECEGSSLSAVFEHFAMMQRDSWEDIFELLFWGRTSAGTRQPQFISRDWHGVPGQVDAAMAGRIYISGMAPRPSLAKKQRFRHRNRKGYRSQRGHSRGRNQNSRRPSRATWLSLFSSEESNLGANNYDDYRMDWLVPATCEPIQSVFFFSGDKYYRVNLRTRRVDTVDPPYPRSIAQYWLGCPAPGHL
Description: binding of bacteria to nVn against aVn as reference.

In the test “control peptide GS-22” the target is B6. Description: ELISA with immobilised peptides.
A further test concerns the target control peptide SY-30 (N-terminal biotin). Kind of test: ELISA with immobilised peptides.
Test [4] addresses human fibronectin (from serum) (human, UniProt P02751 32-2296). Description: bacteria incubated in decomplemented serum, dot blot with specific antibodies.
Test [5] concerns the target B4. Description: ELISA, bacteria on immobilised vitronectin.
Test [6] deals with B4. Kind of test: ELISA with immobilised peptides.
Test [7] has as its target B4. Description: ELISA, bacteria on immobilised heparin-affinity purified vitronectin.

Sequence of human fibronectin (from serum) (P02751 other isoform, or with tags, fused parts or gaps limits assumed): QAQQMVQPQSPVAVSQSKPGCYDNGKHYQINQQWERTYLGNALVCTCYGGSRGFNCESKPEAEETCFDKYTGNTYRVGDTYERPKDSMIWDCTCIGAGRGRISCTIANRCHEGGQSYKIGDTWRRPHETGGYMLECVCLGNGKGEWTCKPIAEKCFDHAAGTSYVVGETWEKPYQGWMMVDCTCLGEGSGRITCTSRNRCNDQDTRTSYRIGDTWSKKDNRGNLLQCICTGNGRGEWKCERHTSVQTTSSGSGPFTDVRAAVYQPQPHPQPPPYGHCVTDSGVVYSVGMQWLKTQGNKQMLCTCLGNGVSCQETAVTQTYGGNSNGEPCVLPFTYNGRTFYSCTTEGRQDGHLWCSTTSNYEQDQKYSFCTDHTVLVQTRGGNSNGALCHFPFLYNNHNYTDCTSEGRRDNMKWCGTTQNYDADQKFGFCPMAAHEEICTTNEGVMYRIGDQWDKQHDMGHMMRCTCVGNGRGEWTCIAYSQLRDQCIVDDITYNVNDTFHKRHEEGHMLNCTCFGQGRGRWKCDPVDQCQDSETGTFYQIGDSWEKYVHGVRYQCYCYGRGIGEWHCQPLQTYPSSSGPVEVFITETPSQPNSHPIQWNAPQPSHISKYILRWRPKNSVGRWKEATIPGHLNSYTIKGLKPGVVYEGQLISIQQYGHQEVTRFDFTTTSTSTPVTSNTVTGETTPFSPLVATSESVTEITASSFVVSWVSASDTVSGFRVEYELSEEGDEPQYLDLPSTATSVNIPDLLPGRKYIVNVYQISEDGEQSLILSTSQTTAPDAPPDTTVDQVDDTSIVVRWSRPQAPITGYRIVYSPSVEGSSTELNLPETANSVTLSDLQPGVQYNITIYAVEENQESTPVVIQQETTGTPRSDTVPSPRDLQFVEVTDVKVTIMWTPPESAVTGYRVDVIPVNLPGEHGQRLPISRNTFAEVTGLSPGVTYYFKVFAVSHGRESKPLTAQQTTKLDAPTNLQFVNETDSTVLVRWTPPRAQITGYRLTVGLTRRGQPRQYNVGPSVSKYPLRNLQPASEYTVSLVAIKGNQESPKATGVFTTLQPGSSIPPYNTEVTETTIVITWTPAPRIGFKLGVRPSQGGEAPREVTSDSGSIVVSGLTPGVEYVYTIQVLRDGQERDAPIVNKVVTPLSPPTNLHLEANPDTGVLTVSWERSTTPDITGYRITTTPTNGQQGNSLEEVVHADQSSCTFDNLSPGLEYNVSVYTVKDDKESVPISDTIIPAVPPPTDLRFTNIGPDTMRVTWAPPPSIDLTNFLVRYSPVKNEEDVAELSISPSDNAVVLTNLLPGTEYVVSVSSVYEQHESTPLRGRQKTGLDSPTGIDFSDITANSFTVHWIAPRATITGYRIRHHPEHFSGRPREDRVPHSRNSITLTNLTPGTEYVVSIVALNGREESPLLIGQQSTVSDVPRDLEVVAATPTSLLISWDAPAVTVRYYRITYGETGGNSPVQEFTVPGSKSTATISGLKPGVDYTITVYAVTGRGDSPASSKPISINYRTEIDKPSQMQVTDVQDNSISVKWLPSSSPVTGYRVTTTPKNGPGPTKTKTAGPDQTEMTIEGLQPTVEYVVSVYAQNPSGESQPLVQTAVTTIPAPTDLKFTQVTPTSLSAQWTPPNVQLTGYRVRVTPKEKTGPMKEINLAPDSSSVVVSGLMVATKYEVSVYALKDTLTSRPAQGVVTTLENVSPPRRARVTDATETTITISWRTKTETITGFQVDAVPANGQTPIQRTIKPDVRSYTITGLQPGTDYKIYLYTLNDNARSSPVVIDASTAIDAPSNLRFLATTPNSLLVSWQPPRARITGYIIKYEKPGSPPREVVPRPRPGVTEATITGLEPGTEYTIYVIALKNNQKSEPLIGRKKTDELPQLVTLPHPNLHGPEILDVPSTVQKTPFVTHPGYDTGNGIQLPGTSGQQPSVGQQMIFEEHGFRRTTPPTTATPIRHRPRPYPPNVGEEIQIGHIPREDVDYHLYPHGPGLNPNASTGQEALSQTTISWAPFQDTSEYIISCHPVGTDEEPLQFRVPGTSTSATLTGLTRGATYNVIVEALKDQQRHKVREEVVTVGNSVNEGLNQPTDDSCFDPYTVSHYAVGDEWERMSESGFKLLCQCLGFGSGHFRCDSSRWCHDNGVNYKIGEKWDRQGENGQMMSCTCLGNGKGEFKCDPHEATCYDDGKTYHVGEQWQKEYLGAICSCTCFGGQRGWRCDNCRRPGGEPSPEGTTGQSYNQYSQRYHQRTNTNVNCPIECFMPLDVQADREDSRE

B1: biotinylated vitronectin peptide AR-36 (Vn residues A360-R395, heparin-binding region) (peptide)
peptide: Biotin-APRPSLAKKQRFRHRNRKGYRSQRGHSRGRNQNSRR
notes: Synthetic peptide immobilised on extravidin coated plates; also called HBD peptide
For B1, the binding result in test [1] is reported as “binds”.

B2: biotinylated vitronectin peptide VA-26 (amino acids 43-68) (peptide)
peptide: Biotin-VTRGDVFTMPEDEYTVYDDGEEKNNA
notes: Synthetic peptide of human vitronectin V43-A68
In the case of B2, in test [2], the binding result is reported as “binds”.

B3: Neisseria meningitidis Opc of strain H44/76, expressed on meningococci (other)
chain: AQELQTANEFTVHTDLSSISSTRAFLKEKHKAAKHISVRADIPFDANQGIRLEAGFGRSKKNIINLETDENKLGKTKNVKLPTGVPENRIDLYTGYTYTQTLSDSLNFRVGAGLGFESSKDSIKTTKHTLHSSRQSWLAKVHADLLSQLGNGWYINPWSEVKFDLNSRYKLNTGVTNLKKDINQKTNGWGFGLGANIGKKLGESASIEAGPFYKQRTYKESGEFSVTTKSGDVSLTIPKTSIREYGLRVGIKF
notes: also called Opc-expressing Nm; (GB) Opc+Δµ
With B3, the “binding relative to the fully activated preparation of Vn” value in [3] is approximately 30%. The binding result in the test with control peptide GS-22 and with control peptide SY-30 was “no binding” each time.

For B4, the binding result in [4] is recorded as “no binding (tested: 10% pooled human serum)”. The “binding relative to the fully activated preparation of Vn” value in [3] was approximately 30%.

B5: mouse vitronectin (other)
chain: DQESCKGRCTQGFMASKKCQCDELCTYYQSCCADYMEQCKPQVTRGDVFTMPEDDYWSYDYVEEPKNNTNTGVQPENTSPPGDLNPRTDGTLKPTAFLDPEEQPSTPAPKVEQQEEILRPDTTDQGTPEFPEEELCSGKPFDAFTDLKNGSLFAFRGQYCYELDETAVRPGYPKLIQDVWGIEGPIDAAFTRINCQGKTYLFKGSQYWRFEDGVLDPGYPRNISEGFSGIPDNVDAAFALPAHRYSGRERVYFFKGKQYWEYEFQQQPSQEECEGSSLSAVFEHFALLQRDSWENIFELLFWGRSSDGAREPQFISRNWHGVPGKVDAAMAGRIYVTGSLSHSAQAKKQKSKRRSRKRYRSRRGRGHRRSQSSNSRRSSRSIWFSLFSSEESGLGTYNNYDYDMDWLVPATCEPIQSVYFFSGDKYYRVNLRTRRVDSVNPPYPRSIAQYWLGCPTSEK
notes: also called mouse Vn
On to B5, for which the binding result in [5] is listed as “binds”.

For B6, the binding result in test [6] was “no binding”.

B7: rabbit vitronectin (other)
chain: DQESCKDRCTEGFNANRKCQCDELCSYYQSCCADYAAECKPQVTRGDVFTMPEDEYGPYDYIEQTKDNASVHAQPESPTVGQEPTLSPDLQTEGGAEPTHEVPLEPEMETLRPEGEDLQAGTTELGTSASPAEEELCSGKPFDAFTDLKNGSLFAFRGQYCYELDETAVRPGYPKLIQDVWGIEGPIDAAFTRINCQGKTYLFKGSQYWRFEDGILDPDYPRNISEGFSGIPDNVDAAFALPAHSYSGRERVYFFKGDKYWEYQFQQQPSQEECEGSSLSAVFEHFAMLHRDSWEDIFKLLFWGRPSGGARQPQFISRDWHGVPGKVDAAMAGRIYISGLTPSPSAKKQKSRRRSRKRYRSRYGRGRSQNSRRLSRSISRLWFSSEEVSLGPYNYEDYETSWLKPATSEPIQSVYFFSGDKYYRVNLRTQRVDTVNPPYPRSIAQYWLGCPAPGGQ
notes: also called rabbit Vn
For B7, the binding result in [7] is on record as “binds”.
